Measured values taken from publication PMC7054387.

Tests used:
[1] = molecular target: T1, H-NS (purified recombinant) (Escherichia coli K12 MG1655?) (UniProt P0ACF8); experiment: EMSA; settings: 1 mM Mg2+, EMSA: 0.5 pmol DNA in 20 µl 5 mM Tris-HCl pH 8.0, 1 mM MgCl2, 50 mM NaCl, 0.01 mM EDTA, 0.01 mM DTT, 3.3 mM imidazole, 40 min at 30°C, 5% PAAG, lysate series …
T1 sequence: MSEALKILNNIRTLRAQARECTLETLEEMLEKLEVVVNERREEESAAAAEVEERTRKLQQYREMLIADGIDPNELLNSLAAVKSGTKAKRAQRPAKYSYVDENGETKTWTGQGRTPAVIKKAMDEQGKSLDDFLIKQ

[2] = molecular target: T2, H-NS-His in cell lysate (Escherichia coli K12 MG1655?) (UniProt P0ACF8); experiment: EMSA + anti-His Western; settings: 0.01 mM EDTA, 0.01 mM DTT, 3.3 mM imidazole, 40 min at 30°C
T2 sequence: T1 sequence

[3] = n=6, EMSA: 0.5 pmol DNA in 20 µl 5 mM Tris-HCl pH 8.0, 1 mM MgCl2, 50 mM NaCl, 5% …, lysate series wi

| Sequence | binding signal (% of initial fragment) ([1]; n=6) | binding signal (% of initial fragment) [2, 3] | further results |
| --- | --- | --- | --- |
| AGATCTTCCTCGGAGAAACACTGACACCCATACAGCTACTGGCGCTCGGCGCTATCATCGCCACTTCAATGGGGTCTACGCTGACAGTACGCAAAGAGAGCAAAATAAAAGAATTAGACATTAATTAAATTTACATTTCTGCATGGTTATGCATAACCATGCAGAATTTCTCGCTACTTTTCCTCTACACCGTCTTTATATATCGAATTATGCAAAAGCATATTTATTCCGAAAATTCCTGGCGAGCAGATAAATAAGAATTGTTCTTATCAATATATCTAACTCATTGAATCTTTATTAGTTTTGTTTTTCACGCTTGTTACCACTATTAGTGTGATAGGAACAGCCAGAATTGCGGAACACATAGCCGGTGCTATACTTAGTCTCGTTAATTACTGGGACATAACATCTAGA (double strand) [dps promoter, up-regulated mutant (positive selection)] | 100 | – | binding signal (% of initial fragment) ([2]; p=0.537, n=6, EMSA: 0.5 pmol DNA in 20 µl 5 mM Tris-HCl pH 8.0, 1 mM MgCl2, 50 mM NaCl, 5% PAAG, lysate series …): 129 |
| AGATCTTCCTCGGAGAAACACTGACACCCATACAGCTACTGGCGCTCGGCGCTATCATCGCCGCTTCAATGGGGTCTACGCAGACAGTACGCAAAGAGAGCAAAATAAAAGAATTAGACATTAATTAAATTTACATTTCTGCATGGTTATGCATAACCTTGCAGAATTTCTCGCTACTTTTCCCCTACACCGTCTTTATATATCGAATTATGCAAAAGCATATTTATTCCGAAAATTCCTGGCGAGCAGATAAATAAGAATTGTTCTTATCAATATATCTAACTCATTGAATCTTTATTAGTTGTGTTTTTCACGCTTGTTACCACTATTAGTGTGATAGGAACAGCCAGAATAGCGGAACACATAGCCGGTGCTATACATAGTCTCGTTAATTACTGGGACATAACATCTAGA (double strand) [dps promoter, down-regulated mutant (negative selection)] | – | 113 | binding signal (% of initial fragment) ([1]; n=6, not significant): 117 |
| AGATCTGCAAGTAAAAATGATACTCTTTTTATATTAAATTCAAACGGTTGACATATATATAGCAAGAGGTTTCAGGTGCGTTGTAGCGAGTTTATGTTTATAAAAAGCATAGTAAGCGTTGAAAAATGTAACTTTGAAATAAGTTAGAATAAAAAACAACATACATATATTAATTTAATCCTAAATGAAATTTATTAAAATCTGCAAACTATAATTTTGTGTATAAAAATATAAATGCACATCATCCTGATTATGATTGTGTATTTAATTGGTTGTTATTTGACTACTATCAACTTGTTTTAATTTTATGATAGGTGCAAGGTGGATTATGTTTGATCCGTAGTTTTCATCTGTCAATCATTTGATTTAATTATAAACAGGAGAGTTATCTCGTTCAAAAAAATTCATTGTTTATTGTAAGCGACAAATCTAGA (double strand) | – | – | binding signal (% of initial fragment) ([1]; p=0.78, n=6): 110; binding signal (% of initial fragment) ([2]; p=0.15, n=6, EMSA: 0.5 pmol DNA in 20 µl 5 mM Tris-HCl pH 8.0, 1 mM MgCl2, 50 mM NaCl, 5% PAAG, lysate series …): 117 |
| AGATCTGCAAGTAAAAATGATACTCTTTATATTTAAATTCAAACGGTTGACATATATATAGCACGAGGTTTCATGTGCGTAGTAGTGAGTTTATGTTATTAAACAGCTTAGTATGCGTTGGAAAGTGAAGCTTTGTAATAAGTTAGAATAAGACGCGACATACATATAACAATTTAATCTTAAATGTAGTCTATTAGCATTTGCAAACAAACAATTTGCGTATATACTATAAATGCACATCATCCTGATTGTGATTGTGTATTTAACTGGTTCTTATATGACTACTACCAACTAGGTTTAGTCTTATGATAGGTGCAGGATGGATTATGTTTACTCCGTAGTTTCCATCTGTCTATCATTAGATTTAATTATGAACAGGAGAGTTATCCTGTTCAAAAAAAATTCATTGTTTATTGTAAGCGACAAATCTAGA (double strand) [appY promoter, activated mutant (positive selection cycle 9)] | 102 | 97.2 | – |
